Test results reported in paper PMC4658703 (Science (New York, N.Y.), 2012).
Read-outs that look alike come from different tables or passages of the source.

Legend:
[1] = molecular target: T1, Human IGF2R domain 11 (wild type) (human, UniProt P11717 1508-1650); experiment: SPR
[2] = molecular target: T1, Human IGF2R domain 11 (wild type); experiment: SPR; remark: listed apart in the source

T1 sequence (P11717 1508-1650): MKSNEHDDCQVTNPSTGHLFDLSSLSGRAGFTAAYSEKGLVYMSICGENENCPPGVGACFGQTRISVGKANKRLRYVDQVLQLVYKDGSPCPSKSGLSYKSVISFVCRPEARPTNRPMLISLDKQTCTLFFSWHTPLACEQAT

B1: Chicken IGF2 (ligand, UniProt P33717 24-91, looked up)
chain: AYGTAETLCGGELVDTLQFVCGDRGFYFSRPVGRNNRRINRGIVEECCFRSCDLALLETYCAKSVKSE
modifications: ends and bridges not checked; also: biotin, site not given here
Kd [1]: 63 nM | Kd [2]: 46 nM
